B1: NP_009172.2 (parent)
chain: LPALFTDLYSQEITAEEAREALP
B2: DUSP5 (parent)
chain: YSEYPECCVDVKPISQEKIESERA

Variants of: B1
Experiment: protein stability index of a GFP-peptide fusion (GPS, HEK-293T) (PSI 1-6); higher = more stable
Conditions: c terminus: native

Protein stability index, by site and new letter:
L1: W 2.68, K 1.72, N 2.86, H 2.6, A 2.95, T 2.4, E 2.96, R 2.22, M 2.91, G 2.77, I 2.63, P 2.49, D 3.9, S 2.32, F 2.59, V 2.59, Q 2.5, C 2.5

Variants of: B2
Experiment: as above
Conditions: c terminus: a fixed tail appended

Protein stability index, by site and new letter:
C8: Y 2.15, W 1.32, E 4.85, V 4.35, Q 4.58, G 5.25, N 5.64, T 5.41, L 4.07, R 5.24, H 5.2, I 3.77, P 5.6, D 4.84
V11: W 4.09, N 4.51, M 4.09, T 3.95, F 3.53, E 4.25, K 4.17, S 4.24, Y 3.4, A 4.23, P 3.61
P13: M 3.5, S 3.33, I 3.69, Y 3.29, N 3.96, H 4.03, D 4.47, F 3.85, G 4.03, R 3.48, W 3.17, L 3.22, Q 4.14, A 4.56, C 4.88
E6: R 1.83, K 1.38, T 2.75, G 3.36, A 2.63, S 2.9, W 3.98, Y 1.44, F 2.28, N 3.74, Q 2.67
R23: Q 4.34, A 4.23, C 4.98, G 4.42, D 4.41, M 3.91, S 4.38, V 3.88, N 4.34, H 4.52, E 4.39, F 3.73, L 4.18, I 4.24, Y 3.71
E22: S 3.56, N 3.59, P 3.45, H 4, A 4.36, F 3.6, M 3.65, K 3.43, R 3.18, W 2.88, Y 2.58, D 4.24, L 2.27, I 3.54, V 3.05
S15: R 4.09, I 3.82, F 3.64, L 3.68, G 4.45, H 4.47, E 4.18, K 3.68, C 4.14, V 3.96, T 3.85, D 4.81
I14: E 4.5, N 3.31, T 3.48, F 4.18, V 4.11, P 4.45, C 3.86, W 3.9, S 4.4, R 3.45, Y 3.84
I19: P 4.02, W 4.24, G 4.34, Q 4.95, K 4.9, F 4.16, T 4.55, E 4.69, A 4.65, V 3.31, M 4.1, Y 3.1
C7: A 4.16, Q 5.35, M 3.81, K 4.6, G 5.38, Y 2.02, F 2.28, W 2.95, R 4.26, I 3.37, P 5.4, H 4.17, D 4.89, E 5.76, T 4.81, S 5.47
Y4: E 5.93, M 4.6, I 5.75, W 1.72, K 5.62, Q 5.34, P 5.53, V 5.67, G 5.77, L 5.71, R 5.52, D 5.67, F 4.06, A 5.66, H 5.02
K18: H 4.41, E 4.55, A 4.17, W 3.73, I 4.02, P 3.84, G 3.39, L 3.68, Q 4.87, M 4.3, T 4.52, V 4.16, N 4.19, S 3.98
E20: S 3.97, T 3.59, V 2.78, H 4, P 3.78, K 4.02, G 3.67, R 3.56, C 4.31, M 2.8, W 2.04, D 4.28, Y 4.1
E17: A 4.41, F 3.43, Q 3.97, H 3.82, C 3.01, P 4.37, N 3.61, W 2.78, S 3.06, M 2.53, K 3.21, T 3.89, G 3.86
S2: C 2.29, Y 4.93, M 4.28, N 5.31, I 1.92, D 5.29, R 5.49, F 4.11, Q 4.29, V 2.53, H 2.13, A 3.48, L 3.67, W 4.44
V9: H 4.39, N 5.56, T 4.4, K 4.53, W 3.39, S 4.93, P 4.24, Y 4.04, Q 4.47, E 5.56, R 2.94, L 4.7, A 4.26, F 3.76, I 4.35, M 3.77
S21: Q 4.1, L 3.79, K 4.49, Y 3.76, M 3.72, T 4.55, H 4.58, P 4.29, W 3.61, D 3.47, F 4.11, N 3.73, C 3.96, E 4.71, A 4.36, R 3.22, G 3.8
Q16: P 4.38, S 3.85, K 3.85, L 4.19, W 2.83, M 4.3, D 4.67, I 3.9, N 4.59, T 4.03, E 4.33, H 3.99, A 3.74
A24: Q 4.18, E 4.9, N 4.1, G 3.82, V 3.89, W 3.44, F 2.43, K 3.82, L 4.26, I 4.16, Y 3
K12: S 3.02, P 4.32, T 4.07, M 4.18, V 4.14, I 3.72, C 3.96, A 4.47, D 4.46, H 4.95
Y1: L 5.5, C 5.2, W 5.1, F 4.12, R 5.62, G 5.21, T 5.23, N 5.6, S 5.75, I 4.87, P 4.94, A 5.74, Q 5.33, E 5.86, H 5.21
E3: R 4.17, D 5.39, F 4.66, K 4.53, M 4.7, S 3.95, T 4.67, L 4.24, H 4.49, I 4.17, G 4.27, C 3.53
P5: S 4.73, D 5.42, H 3.39, Y 3.9, W 1.21, C 4.34, I 3.96, R 3.48, K 5.16, V 4.45, A 4.47, L 4.28
D10: K 3.71, F 2.47, I 2.6, E 4.66, T 2.85, S 3.88, N 2.18, H 3.15, Y 3.04
